The text below walks through data of patent publication US20050249735A1.

In assay [1] the target is human lymphotoxin (TNFβ) (human) (UniProt P01374). Description: cell-based or functional assay.
For assay [2], the target named is human tumor necrosis factor-alpha (TNFα) (human) (UniProt P01375). In words: cell-based or functional assay.
human tumor necrosis factor-alpha (TNFα) (human), sequence (P01375 77-233): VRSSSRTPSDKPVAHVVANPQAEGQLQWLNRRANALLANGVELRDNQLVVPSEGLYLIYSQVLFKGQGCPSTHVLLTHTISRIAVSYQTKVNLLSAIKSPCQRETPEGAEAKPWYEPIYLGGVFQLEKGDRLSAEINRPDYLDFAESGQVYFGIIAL

human lymphotoxin (TNFβ) (human), sequence (P01374 35-205 limits assumed): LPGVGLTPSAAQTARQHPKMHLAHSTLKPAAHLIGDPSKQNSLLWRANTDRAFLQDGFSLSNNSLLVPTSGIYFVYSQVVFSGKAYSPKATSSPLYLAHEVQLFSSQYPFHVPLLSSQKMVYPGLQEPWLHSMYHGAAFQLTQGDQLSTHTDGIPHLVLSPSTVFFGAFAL

With “p75P-sf2 (p75 heavy chain fusion lacking the C-terminal 53 amino acids of the p75 extracellular domain) (from UniProt P20333 23-204; P01857 1-330) (Fc fusion)”, the concentration to half-inhibit human TNFβ at 2 pM, WEHI 164 cytotoxicity in assay [1] stood at 31 pM.
Regarding “p75-sf2 (complete extracellular domain of p75 fused to the heavy chain) (from UniProt P20333 23-257; P01857 1-330) (Fc fusion)”, the amount needed for the same degree of inhibition of TNFβ cytotoxicity, against p75P-sf2 in assay [1] is 3 fold.
Same read-out and setting: next, “p55-sf2 (p55 TNF receptor / IgG1 heavy chain single fusion with truncated light chain JCK) (from UniProt P01857 1-330) (Fc fusion)”: 3 fold.

B1: chimeric mouse/human IgG1 anti-platelet mAb (7E3) (antibody, INN chains, looked up, V domains shown)
VH: EVQLQQSGTVLARPGASVKMSCEASGYTFTNYWMHWVKQRPGQGLEWIGAIYPGNSDTSYIQKFKGKAKLTAVTSTTSVYMELSSLTNEDSAVYYCTLYDGYYVFAYWGQGTLVTVSA
VL: EIVLTQSPVTLSVTPGDSVSLSCRASRDISNNLHWFQQTSHESPRLLIKYASQSMSGIPSRFSGSGSGTDFTLSINSVETEDFGMYFCQQTNSWPYTFGGGTKLEIK
modifications: full IgG1
In assay [2], B1 gave an IL-6 in supernatant of FS-4 fibroblasts, rhTNF 0.3 ng/ml, 4 µg/ml antibody of 1.6 ng/mL; an IL-6 in supernatant of FS-4 fibroblasts, rhTNF 1.5 ng/ml, 4 µg/ml antibody of 1.96 ng/mL; an IL-6 in supernatant of FS-4 fibroblasts, rhTNF 7.5 ng/ml, 4 µg/ml antibody of 2.16 ng/mL.
